Test results: the nanobody polyreactivity screen of Harvey et al. (2022)

Assay: yeast display, Sf9 membrane polyspecificity reagent, FACS + sequencing; frameworks hold sequencing errors
Outline: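 In a synthetic yeast display library (Saccharomyces cerevisiae BJ5465), nanobody expression was induced with galactose for 36–48 hours. FACS gates were set low and high (top ~1%) using anti-HA fluorescence for expression and streptavidin fluorescence for binding of the Sf9 membrane reagent. Each polyreactivity label is drawn from the gate of origin.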

| Sequence | polyreactivity (PSR sort gate) |
| --- | --- |
| QVQLVESGGGLVQAGGSLRLSCAASGLTFEKYSMGWYRQAPGKERELVAAISQDGGSTYYADSVKGRFTISRDNAKNTVYLQMNSVKPEDTAVYYCAAEDPDSWLPWDLFDYWGQGTQVTVSS | low polyreactivity |
| QVQLVESGGGLVQAGGSLRLSCAASGLTFERYAMGWNREAPGKERELVAAISGSGGSTYYADSVKGRFTISRDNAKNTVYLQMNSLTPEDTAVYYCAAYPTVWYDYWGQGTQVTVSS | high polyreactivity |
| QVQLVESGGGLVQAGGSLRLSCAASGLTFFPNAMGWYRQAPGKERELVAAISNNGGRTYYADSVKGRFTISRDNAKNTVYLQMNSLKPEDTAVYYCAKYLSPGERHSYDYWGQGTQVTVSS | high polyreactivity |
| QVQLVESGGGLVQAGGSLRLSCAASGLTFGAYAMGWYRQAPGKEREFVAAITYSGGSTNYADSVKGRFTISRDNAKNTVYLQMNSLKPEDTAVYSCNAGYYSPWAFYPYDYWGQGTQVTVSS | high polyreactivity |
| QVQLVESGGGLVQAGGSLRLSCAASGLTFGGNAMGWYRQAPGKERELVAGISSSGNTNYADSVKGRFTISRDNAKNTVYLQMNSLKPEDTAVYYCAADENITYPVYDMYYWGQGTQVTVSS | low polyreactivity |
| QVQLVESGGGLVQAGGSLRLSCAASGLTFGGYTMGWYRQAPGKERELVAAITSGGSTYYADSVKGRFTISRDNAKNTVYLQMNSLKPEDTAVYYCAARVRGWPVSKFGYWGQGTQVTVSS | high polyreactivity |
| QVQLVESGGGLVQAGGSLRLSCAASGLTFGHYDMGWYRQAPGKERELVAAITWSGGSTYYADSVKGRFTISRDNAKNTVYLQMNSLKPEDTAVYYCNADQPILYYSYRGVGYDYWGQGTQVTVSS | high polyreactivity |
| QVQLVESGGGLVQAGGSLRLSCAASGLTFGNYAMGWYRQTPGKERELVAAISKRGGTTYYADSVKGRFTISRDTAKNTVYLQMNSLKPEDTAVYYCSARDYSHPTDDNYWGPGTQVTVSS | high polyreactivity |
| QVQLVESGGGLVQAGGSLRLSCAASGLTFGPNALGWYRQAPGQERELVAAITTGGGTNYADSVKGRFTISRDNAKNTVYLQMNSLKPEDTAVYYCAADALDSPDGYDYCGQGTQVTVSS | low polyreactivity |
| QVQLVESGGGLVQAGGSLRLSCAASGLTFGRNAMGWYRQAPGKERELVAAISRSGGRTSYADSVKGRFTISRDNAKNTVYLHMNSLKPEDTAVYYCAARSPIYRTTYYYWGQGTQVTVSS | high polyreactivity |
| QVQLVESGGGLVQAGGSLRLSCAASGLTFGRNAMGWYRQAPGKERELVAAITFNGGSTYYADSVKGRFTISRDNAKNTVYIQMNSLKPEDTAVYYCAAPYYVYWTYPYRVLSYYYWGQGTQVTVSS | high polyreactivity |
| QVQLVESGGGLVQAGGSLRLSCAASGLTFGRNAMGWYRQSPGKERELVAAITFNGGSTYYADSVKGRFTISRDNAKNTVYFQMNSLKPEDTAVYYCAARLWRRSRFDYWGLGTQVTVSS | high polyreactivity |
| QVQLVESGGGLVQAGGSLRLSCAASGLTFGRNVMGWYRQAPGKERELVAAISWRGDSTYYADSVKGRFTISRDNAKNTGYLQMNSLKPEDTAVYYCAVRYYRGSVASGSDYWGQGTQVTVSS | high polyreactivity |
| QVQLVESGGGLVQAGGSLRLSCAASGLTFGRYAMGWYRQAPGKERELVAAITRSGGRTYYADSVKGRFTISRDNAKNTVYLQMNSLKPEDTAVYYCNKLSHLGAPGDPDDYWGQGTQVTVSS | high polyreactivity |
| QVQLVESGGGLVQAGGSLRLSCAASGLTFGTNAMGWYRQAPGKERELVAAISTSSGSTYYADSVKGRFTISRDNAKKTVYLQMNSLKQEDTAVYYCAAVTVTKLSYYRYYYWGQGTQVTVSS | low polyreactivity |
| QVQLVESGGGLVQAGGSLRLSCAASGLTFGTNSMGWYRQAPGKEMELVAAINRGGGSTYYADSVKGRVTISRDNAKNTVYLQMNSLKPEDTAVYYCAKSYSGSRTSDYWGQGTQVTVSS | high polyreactivity |

| Sequence | polyreactivity (PSR sort gate) |
| --- | --- |
| QVQLVESGGGLVQAGGSLRLSCAASGLTFGTYAMGWYRQAPGKERELVAAISTSGVRTYYADSVKGRFTISRDNAKNTVYLQMNSLKPEDTAVYYCAARYNRAYSRDYWGQGTQVTVSS | high polyreactivity |
| QVQLVESGGGLVQAGGSLRLSCAASGLTFGVYAMGWYRQAPGQERELVAASTWGDGSTYYADSVKGRFTISRDNAKNTGYLQMNSLKPEDTAVYYCNAVTRRHKYYYWGQGTQVTVSS | high polyreactivity |
| QVQLVESGGGLVQAGGSLRLSCAASGLTFGYYAMGWYRQAPGKERELVAAITGGGGSTYYADSVKGRFTISRDNAKNTVYLQMNSLKPEDTAVYYCAKAVYFRRKGHWYQMEYWGQGTQVTVSS | low polyreactivity |
| QVQLVESGGGLVQAGGSLRLSCAASGLTFGYYAMGWYRQAPGKVRELVAAISRGSSTYYADSVKGRFTISRDNAKNTVYLQMNSLIPEDTAVYYCNALFSYGYWRVRYIVTQYDYWGQGTQVTVSS | high polyreactivity |
| QVQLVESGGGLVQAGGSLRLSCAASGLTFGYYAMVWYRQAPGKERELVAAINRSGNTNYADSVKGRFTISRDNAKNTVYLQMNCLKPEDTAVYYCAKRIWSILSPYKSSYGYDYWGQGSQVTVSS | low polyreactivity |
| QVQLVESGGGLVQAGGSLRLSCAASGLTFHPYDMGWYRQAPGKERELVAAISSRGTSTYYADSVKGRFTISRDNAKNTVYLQMNSLKPEDTAVYYCAARHGPRAEAMYYWGQGSQVTVSS | high polyreactivity |
| QVQLVESGGGLVQAGGSLRLSCAASGLTFHRYAMGWYRQAPGKERELVAANNYSGGRTYYADSVKGRFTISRDNAKNTVYLQMNSLKPEDTAVYYCAAPRASGYYWGQGTQVTVSS | high polyreactivity |
| QVQLVESGGGLVQAGGSLRLSCAASGLTFHTNTMGWYRQAPGKERELVAAITWRDDSTYYADSVKGRFTISRDYAMNTVYLQMNSLKPEDTAVFYCAARGGAYLWYHYDYWGQGTQVTVSS | low polyreactivity |
| QVQLVESGGGLVQAGGSLRLSCAASGLTFHYYGMGWYRQAPGKERELVAAISSGGSTYYADSVKGRFTISRDNAKNTVYLQMNSLKPEDTAVYYCAASLAYWYRGHYDYWGQGTQVTVSS | low polyreactivity |
| QVQLVESGGGLVQAGGSLRLSCAASGLTFIKYAMGWYRQAPGKEREFVADISKRGGTTYYADSVKGRFTISRDNAKNTVYLQMNSLKPEDTAFYYCAARQYLNVYYRYDYWGQGTQVTVSS | high polyreactivity |
| QVQLVESGGGLVQAGGSLRLSCAASGLTFIPNAMGWDRQAPGKERELVAAISGTGGSTYYADSVKGRFTISRDNAKNTVYLQMNSLKPEDTAVYYCAARRRYKSGYWGQGTQVTVSS | high polyreactivity |
| QVQLVESGGGLVQAGGSLRLSCAASGLTFIRYTRGWYRQAPGKDRELVAAINWSGDSTYYADSVKGRFTISLDNAKITVYLQMNSLKPEDTAVYYFNARRPRFRYDYWGQGTQVTVSW | high polyreactivity |
| QVQLVESGGGLVQAGGSLRLSCAASGLTFIYYAMGWYRQAPGKERELVAAISVSGGSTYYADSVKGRFTISRDNAKNTVYLQMNSLKQEDTAVYYCAADWFVHKPRYQYSFDYWGQGTQVTVSS | low polyreactivity |
| QVQLVESGGGLVQAGGSLRLSCAASGLTFKFNAMGWYRQAPGKERELVAAISFGGDDTYYADSVKGRFTISRDNAKNTVYLQMNSLKPEDTAVYYCAAEYDTWGYSGRDYWGQGTQVTVSS | low polyreactivity |
| QVQLVESGGGLVQAGGSLRLSCAASGLTFKSYAMGWYRQAPGKERELVAVISSSGGRTYYADSVKGRFTISRDNAKNTVYLQMNSLKPEDTAVYYCAADGSYGKWGGHAMYYWGQGTQVTVSS | high polyreactivity |
